The values that follow come from article PMC5469797, “Discovery of a novel conformational equilibrium in urokinase-type plasminogen activator” (Scientific Reports, 2017).

The test addresses T1, full-length muPA inhibited at the active site with Glu-Gly-Arg-chloromethylketone (Mus musculus, UniProt P06869, irreversible active site binding ligand Glu-Gly-Arg-chloromethylketone (EGR-cmk) in the active site).
T1 construct: as m2; source: HEK293 6E suspension cells, purified by nickel-Sepharose chromatography; reacted with EGR-cmk
Nature of the test: SPR; BiaCore T100, 22 °C, curves fitted to a 1:1 binding model; who was immobilised is not told (SI Methods). The settings on record: both partners purified. On the technique in general: Surface plasmon resonance follows binding to a sensor surface in real time, without labels.

T1 sequence (P06869 21-433): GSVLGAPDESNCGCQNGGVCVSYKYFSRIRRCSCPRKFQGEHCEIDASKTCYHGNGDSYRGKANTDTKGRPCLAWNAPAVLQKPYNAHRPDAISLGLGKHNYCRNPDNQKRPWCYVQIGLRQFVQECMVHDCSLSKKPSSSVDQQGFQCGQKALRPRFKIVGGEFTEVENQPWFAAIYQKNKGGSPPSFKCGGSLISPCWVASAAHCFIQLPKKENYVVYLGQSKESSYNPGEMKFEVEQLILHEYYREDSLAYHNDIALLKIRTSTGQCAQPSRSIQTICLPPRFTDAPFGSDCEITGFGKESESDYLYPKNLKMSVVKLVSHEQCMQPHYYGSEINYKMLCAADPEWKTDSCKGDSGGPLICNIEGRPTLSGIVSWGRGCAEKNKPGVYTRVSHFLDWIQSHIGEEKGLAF

B1: anti-muPA allosteric nanobody Nb7 (VHH)
VHH: QVQLQESGGGLVQPGGSLRLSCAASGFTLGYYAIGWFRRAPGKEREGVSCISSSGGSTNYADSVKGRFTISRDNAKNTVDLQMNSLKPEDTAIYYCAAEWVPPGYGATVQALCNNAGYGMEYWGKGTQVTVSS
notes: from an immunised alpaca phage library; All residues of Nb7 were visible in the electron density of 5LHN; source: E. coli WK6 (su-), produced as described previously
Take B1: the “fold change of KD against muPA without EGR-cmk” value worked out at 1.5 fold.
